Experimental data from patent US20260242492A1 (JOINT STOCK COMPANY BIOCAD, published 2026).

Tests used:
[1] = biological target: T1, extracellular domain of the human CSF1R protein (hCSF1R_His) (human, UniProt P07333 20-512); assay: BLI (Octet RED 384), antibody-like molecule on ProA sensors, hCSF1R_His analyte 174.2 nM, 1:1 model
T1 construct: range 20-512; Made in CHO cells, molecular weight 57.4 kDa as printed; not shown: C-terminal His-tag and FLAG-tag
Experimental: (§1) Experiments were carried out using a kinetic buffer solution (hereinafter referred to as 1×KB); volume fraction of added Tween 20 was 0.1%; mass fraction of added BSA (bovine serum albumin) was 0.1%; pH 7.4. Before the measurement, the ProA sensors were regenerated with a solution of 50 mM glycine and hydrochloric acid, pH 1.8 (5 seconds in the regenerating solution, 5 seconds in 1×KB, three repetitions).
In the case of the hPDlex-H6F and hCSF1R_His antigens, the Protein A (ProA) biosensors (ForteBio) were immersed in a solution with antibody-like molecules at a concentration of 10 µg/ml for 300 seconds to immobilize same. The baseline was recorded in 1×KB for 120 seconds. Sensors loaded with the antibody-like molecule were then immersed into wells containing a solution of the target antigen (analyte) in a kinetic buffer for 300 seconds. Measurements were performed for solutions with hPDlex-H6F analyte at concentrations of 10 µg/ml (485.4 nM), for solutions with hCSF1R_His analyte at concentrations of 10 µg/ml (174.2 nM). Complex dissociation in 1×KB was then detected for 600 seconds.
(§2) To obtain numerical values of kinetic constants (kon is the on/association rate constant, kdis is the dissociation rate constant, KD is the equilibrium dissociation constant or affinity constant), the resulting sensograms were processed according to the 1:1 interaction model using Global Fit (selection of one set of kon, kdis, KD constants to analyze several sensograms of different concentrations) of the ForteBio Octet Data Analysis 9.0 software.

[2] = biological target: T2, biotinylated peptide [NH2]CEPANPSEKNSPSTQYCYSIQS[CH2CH2]biotin comprising a fragment of the human CD20 … (human, [NH2] at the N-terminus; [CH2CH2]biotin at the C-terminus (so in the source)); assay: BLI (Octet RED 384), biotinylated CD20 peptide on SAX sensors, antibody-like molecule as analyte, 1:1 model, global fit
T2 construct: Immobilized on streptavidin (SAX) sensors; also called CD20 peptide
T2 peptide: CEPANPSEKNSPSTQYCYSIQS
Experimental: as §1
In the case of biotinylated […], the peptide at a concentration of 2.5 μg/ml was immobilized on the surface of SAX sensors (High Precision Streptavidin (SAX) biosensors, ForteBio) for 300 seconds. The baseline was recorded in a 1×KB solution for 120 seconds. Sensors loaded with peptide were then immersed into wells containing the solution of antibody-like molecule (analyte) in 1×KB for 300 seconds. Measurements were performed for solutions with analyte (antibody-like molecule in case of CD20 peptide) at concentrations […] and 75 µg/ml. Complex dissociation was recorded in 1×KB for 60 seconds.
as §2

T1 sequence (P07333 20-512 limits assumed): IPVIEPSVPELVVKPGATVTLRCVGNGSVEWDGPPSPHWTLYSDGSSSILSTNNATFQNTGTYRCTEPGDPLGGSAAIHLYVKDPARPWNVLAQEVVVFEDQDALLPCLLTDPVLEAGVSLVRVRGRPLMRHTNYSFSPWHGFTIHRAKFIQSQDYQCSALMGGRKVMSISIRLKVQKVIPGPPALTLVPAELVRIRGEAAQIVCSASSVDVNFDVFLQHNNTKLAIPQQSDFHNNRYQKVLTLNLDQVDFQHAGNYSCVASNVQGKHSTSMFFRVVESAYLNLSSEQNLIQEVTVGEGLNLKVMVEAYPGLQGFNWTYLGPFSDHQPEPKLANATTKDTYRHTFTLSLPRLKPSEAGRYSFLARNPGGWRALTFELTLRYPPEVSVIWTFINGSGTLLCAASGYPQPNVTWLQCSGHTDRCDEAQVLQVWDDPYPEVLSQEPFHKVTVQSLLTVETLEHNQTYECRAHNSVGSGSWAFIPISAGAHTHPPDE

B1: antibody-like molecule 08-005 (binds CD20 and CSF1R) (bispecific antibody, human IgG1, kappa, L234A L235A)
heavy 1: EVQLVESGGGLVQPGGSLRLSCAASGYTFTSYNMHWVRQAPGKGLEWVGAIYPGNGDTSYNQKFKGRFTISVDKSKNTLYLQMNSLRAEDTAVYYCARVVYYSNSYWYFDVWGQGTLVTVSSASTKGPSVFPLAPSSKSTSGGTAALGCLVKDYFPEPVTVSWNSGALTSGVHTFPAVLQSSGLYSLSSVVTVPSSSLGTQTYICNVNHKPSNTKVDKRVEPKSCDKTHTCPPCPAPEAAGGPSVFLFPPKPKDTLYITREPEVTCVVVDVSHEDPEVKFNWYVDGVEVHNAKTKPREEQYNSTYRVVSVLTVLHQDWLNGKEYKCKVSNKALPAPIEKTISKAKGQPREPQVCTLPPSRDELTKNQVSLSCAVKGFYPSDIAVEWESNGQPENNYKTTPPVLDSDGSFFLVSKLTVDKSRWQQGNVFSCSVMHEALHNHYTQKSLSLSPGK
light 1: DIQMTQSPSSLSASVGDRVTITCRASSSVSYMHWYQQKPGKAPKPLIYAPSNLASGVPSRFSGSGSGTDFTLTISSLQPEDFATYYCQQWSFNPPTFGQGTKVEIKRTVAAPSVFIFPPSDEQLKSGTASVVCLLNNFYPREAKVQWKVDNALQSGNSQESVTEQDSKDSTYSLSSTLTLSKADYEKHKVYACEVTHQGLSSPVTKSFNRGEC
heavy 2: not shown
light 2: QAGLTQPPSVSVAPGQTARITCGGNNIGSKSVHWYQQKPGQAPVLVVYGDSDRPSGIPERFSGSNSGNTATLTISRVEAGDEADYYCQVWDISSDHVVFGGGTQLTVLQRQVKPEAWLSKGPSPGPGRLQLVCHVSGFYPKPVWVMWMRGEQEQQGTQLGDILPNADWTWYLRATLDVADGEAAGLSCRVKHSSLEGQDIILYWRGSC
notes: Four distinct chains: Ocrelizumab Fab arm (hole) and anti-CSF1R Fab-like arm with b2m/CD1b alpha3 dimerization unit (knob)
Kd [1]: 1.4 nM | koff [1]: 0.000253 s⁻¹ | kon [1]: 181000 M⁻¹ s⁻¹ | Kd [2]: 483 nM | koff [2]: 0.0581 s⁻¹ | kon [2]: 120000 M⁻¹ s⁻¹

B2: antibody-like molecule 08-006 (binds CSF1R and CD20) (bispecific antibody, human IgG1, kappa, L234A L235A)
heavy 1: QVQLVESGGGLVRPGGSLRLSCAASEFTFDDYAMSWVRQAPGKGLEWVSAISWNGGSTNYADSVKGRFTISRDNAKNSLYLQMNSLRAEDTALYYCASTVEVAHRRLYKYLEVWGQGTLVTVSSASTKGPSVFPLAPSSKSTSGGTAALGCLVKDYFPEPVTVSWNSGALTSGVHTFPAVLQSSGLYSLSSVVTVPSSSLGTQTYICNVNHKPSNTKVDKRVEPKSCDKTHTCPPCPAPEAAGGPSVFLFPPKPKDTLYITREPEVTCVVVDVSHEDPEVKFNWYVDGVEVHNAKTKPREEQYNSTYRVVSVLTVLHQDWLNGKEYKCKVSNKALPAPIEKTISKAKGQPREPQVCTLPPSRDELTKNQVSLSCAVKGFYPSDIAVEWESNGQPENNYKTTPPVLDSDGSFFLVSKLTVDKSRWQQGNVFSCSVMHEALHNHYTQKSLSLSPGK
light 1: QAGLTQPPSVSVAPGQTARITCGGNNIGSKSVHWYQQKPGQAPVLVVYGDSDRPSGIPERFSGSNSGNTATLTISRVEAGDEADYYCQVWDISSDHVVFGGGTQLTVLRTVAAPSVFIFPPSDEQLKSGTASVVCLLNNFYPREAKVQWKVDNALQSGNSQESVTEQDSKDSTYSLSSTLTLSKADYEKHKVYACEVTHQGLSSPVTKSFNRGEC
heavy 2: not shown
light 2: DIQMTQSPSSLSASVGDRVTITCRASSSVSYMHWYQQKPGKAPKPLIYAPSNLASGVPSRFSGSGSGTDFTLTISSLQPEDFATYYCQQWSFNPPTFGQGTKVEIKQRQVKPEAWLSKGPSPGPGRLQLVCHVSGFYPKPVWVMWMRGEQEQQGTQLGDILPNADWTWYLRATLDVADGEAAGLSCRVKHSSLEGQDIILYWRGSC
notes: Four distinct chains: anti-CSF1R Fab arm (hole) and Ocrelizumab Fab-like arm with b2m/CD1b alpha3 dimerization unit (knob)
Kd [1]: 1.92 nM | koff [1]: 0.000372 s⁻¹ | kon [1]: 194000 M⁻¹ s⁻¹ | Kd [2]: 2600 nM | koff [2]: 0.418 s⁻¹ | kon [2]: 161000 M⁻¹ s⁻¹
